Values of other authors as cited in patent US6645518B2, “Uses for medical devices having a lubricious, nitric oxide-releasing coating” (priority 1998, dated 2003).

Tested on: clinical restenosis
Conditions: after balloon angioplasty, systemic administration, six month follow-up

B1: c7E3: potent anti-platelet agent, GPIIb/IIIa antibody, FDA-approved for use after balloon angioplasty (antibody, chains of the INN, looked up, V domains shown)
VH: EVQLQQSGTVLARPGASVKMSCEASGYTFTNYWMHWVKQRPGQGLEWIGAIYPGNSDTSYIQKFKGKAKLTAVTSTTSVYMELSSLTNEDSAVYYCTLYDGYYVFAYWGQGTLVTVSA
VL: EIVLTQSPVTLSVTPGDSVSLSCRASRDISNNLHWFQQTSHESPRLLIKYASQSMSGIPSRFSGSGSGTDFTLSINSVETEDFGMYFCQQTNSWPYTFGGGTKLEIK
  reduction of clinical restenosis: 20-30%
